# Assay: soluble on expression in E. coli; label from the status in PepcDB or PDB records
row,Sequence,soluble on expression in E. coli
1,MNRTAMRASQKDFENSMNQVKLLKKDPGNEVKLKLYALYKQATEGPCNMPKPGVFDLINKAKWDAWNALGSLPKEAARQNYVDLVSSLSPSLESSSQVEPGTD,soluble
2,RLSEIFNSPEFAESKSKLTLALGQDITGQPVVTDLGKAPHLLVAGTTGSGKSVGVNAMILSMLFKAAPEDVRMIMIDPKMLELSIYEGIPHLLAPVVTDMKLAANALNWCVNEMEKRYRLMSFMGVRNLAGFNQKIAEAAARGEKIGNPFSLTPDDPEPLEKLPFIVVVVDEFADLMMTAGKKIEELIARLAQKARAAGIHLILATQRPSV,not soluble
3,GMIRVMATGVFDILHLGHIHYLKESKKLGDELVVVVARDSTARNNGKIPIFDENSRLALISELKVVDRAILGHEGDMMKTVIEVKPDIITLGYDQKFDEAELQSKINKLGITVKIVRISKYDGQLNSSSSVRKKIMELIGERY,soluble
4,MGSDKIHHHHHHAPKKKEEPSPEASSSKRPFRVCLNVSTIAGYKLPVQKQIDLCAEAGFEGIELWTRDVDAFVKQGGTYETLRRQLEGSGLLLENMIGFASWFADDLSKRKEGLNQMRHDMEMVAGLGGKFIAAPAQGVTQLDRTRLPEYSERYRAILDLGDEMGVTPILELWGAGILNQLSDTMAIAIASGHSRASVLLDFYHLYRGGNSFDSLRLINGKILPVFHINDYPELPPRTELRDSDRVFPGDGICPFNKVLPLLYDSGFRGGLSVELFNKGYWETMDVKEVLKKSFEKTTQVINSSMG,not soluble
5,MDLEYAMNPGGRRRFQNKDQATYGVFAPDSDDDDDEQGTSRGPYKKRSKISAPMSFVSGGIQQGNKIDKDDPASLNLNLGGEKKPKEDDEGSIQIDFDKRTKKAPKQNGAQVFAGMRSSANHGAADINQFGSWMRGDGNSNKIMKMMQAMGYKPGEGLGAQGQGIVEPVQAQLRKGRGAVGAYGKESTATGPKFGESAADAQKRMAQEGTSSRPTNDDQEKSGLKIKGSWKKSQTVKTKYRTIEDVMEEGMSASRPASHQQSQQYSNIKVIDMTGKQQKIYSGYDSFSMKTRSEYDTVDDEERTVFDVPELIHNLNLLVDLTEEGIRRSNQQLISLKDQTTALEYDLQQVQKSLGTEEQEAQHIKDVYELIDGFSSNRSPSMEECQELFRRLRSEFPHEYELYSLETVAIPTVLPLIQKYFVAWKPLEDKNYGCELISTWRDILDDSKNGRKMTFGHNKTKGDEIRAYDRIIWEGILPSIRRACLQWDPSTQMHEMIELVEQWIPLLSAWITENILEQLVVPKIAERVNQWDPMTDEIPIHEWLVPWLVLLGDRIQTVMPPIRQKLSKALKLWDPMDRSALETLRPWQNVWSAATFSAFIAQNIVPKLGVALDTMELNPTMNPEYPEWTACMEWLEFTHPDAIANIVTKYFFPRFYNCLCLWLDSPGVDYNEVKRWYGSWKARIPQVLVNYPTVNENLRRSMIAIGRSLQGEKVGGLQATPIAPMAPPPPMAPHFTQAAPVQKLSLKEIIEYTAGKNGFTYHPQKDRYKDGRQVFWFGALSIYLDSEMVYVMDPIEFVWRPSGLNELIQMAQGAQG,not soluble
6,MGSDKIHHHHHHTQKPDITYMPQPPFNPPTYVCYKAPAPIKIDGKLSPGEWDAIPWTSDFVDIEGDKRPAPHFQTRAKMTYDDNGMYFAVLMEEPHVWATITEHDAVIFHDNDFEIFLNPTNDTHNYLEYEVNALGTEWDLFLTRPYRDNPQVLNNWEFTGMKSAVYVDGTLNNPKDTDKSWSVEVFIPWTSVFQMDRGKEKPEIGEQIRVNFSRVEWTTDVKDGKYVKVPIQGEDKIREYNWVWAPTGVINIHMPEYWGYVQISDKIAGEGETPFVKHPSEETKWILRNLYYRQNEFAATFGHYADNINDLKANELCPQEIANQLEIHTTPSMYEISLPAPDGTVWNIRQDGLVWPKKK,not soluble
7,GHMQEKPPKELVNEWSLKIRKEMRVVDRQIRDIQREEEKVKRSVKDAAKKGQKDVCIVLAKEMIRSRKAVSKLYASKAHMNSVLMGMKNQLAVLRVAGSLQKSTEVMKAMQSLVKIPEIQATMRELSKEMMKAGIIEEMLEDTFESMDDQEEMEEEAEMEIDRILFEITAGALGKAPSKVTDALPEPEPPGAMAASEDEEEEEEALEAMQSRLATLRS,soluble
8,MSLQNIRFGECINSPYVKPKRVFYTERGIEKSWDVVEAHDSVSVLLFDPKKRAFVLVKQFRPAVFLKGTSGYTYELCAGIVDKPGKSLEVIAQEEILEECGYSLSIDSLERITSFYTSVGFAGSRQTLFYAEVEDSLRQGEGGGVESENIEVVHLPLLEARAFMLDEERPKTPGLLFAFMWFFERHPKNEGHHHHHH,soluble
9,MAEATVLIPAFNEEATVGRVVRVAREAGFPVVVADDGSKDETARRALEAGAEVVRLKENRGKGGAIAEGLKAVRTPFVLLLDADLLGLRPEHLFALLKPLKEGEARMAVGVFRGGRASTDLAMRLTPFLSGQRALRLEDLRSVPGLERARYDLELLLTRHAKRAGWPVVYVPMEGVSQVMKEEKRGVLAGLGHRLRMYWEILRYRLRAR,soluble
10,MKTFNAGRNADTEDELWVVEHPPVFTQGLAGKPEHLLIRDDIPVVQIDRGGQITYHGPGQLVVYTMIDFKRRKTSVRNIVSALENSIIATLAEYGIEAAADPKRPGVYVGERKIASLGLRIKNGSVYHGLALNVNMDLSPFTHINPCGYAGMEMTQIADFVQPCPTPDEVAAKLTAHLETQFTPKADNNE,not soluble
11,MTCFKIRLSKQPLKGRTMNKPFITQAQLALYKYQPSSKYYGKTMAYTFASELLDYSKVNKFIIHEEIQCFLNRRISNNIWKIYFSDESVAYIKILELQDDYSRGIEIKTFDFNPNVGDVFG,not soluble
12,MRIKLIIVEGKTDESFFKVLLEKLYGFREAKKLTPEFPIGKWGFRIGEHPLVLEKDNIALVIIHAEGKQRIPKVLKSVLDSVKLGLLNVEEVYVVRDVDEGNDVFEWVLSFLREREVRVDNGAIVTEGVKIYPYGMGNLTLNEPFVKEKKELELSLAYLAKLDGILEKYRGSMRALSQDKGDKLTPKDVMHILSIANDYTGDCLSGLYEKYIGIMIHRNRELLIRFLSEVNLLPLLERMVG,soluble
13,MTQDYRVLLYYQYVPIEDGETFAQKHLADCKELGLKGRILVADEGINGTVSGTIEQTNAYMELMKNDPRFSSTIFKIDEAEQNAFKKMHVRYRPELVNLSLEDDVNPLELTGAYLDPKEFREAMLDENTVVIDARNDYEFDLGHFRGAIRPEIRSFRELPQWIRDNKEQFMEKRVLTYCTGGIRCEKFSGWLVREGFKDVGQLHGGIATYGKDPEVQGDLWDGQMYVFDSRIAVPINQKEHVIVGRDWFDGSPCERYINCGNPECNRQMLASEENEAKYLGACSHECRVHPNNRYIKAHQLSNQEVQERLALLEKDLASLEHHHHHH,soluble
14,MSLTAPRLRILSVEVRERMMPFVRPFRFGPSVVEAAPQAFVRIELEVEGAGRAVGQAAEMMMPRWFDKAPHKSPEQTVDDLRRVLLHAAALYADAPWSTAYGLSADAAAMQLGWAEGRGIPALAAHFGPALLDKAVVDALLRALSLTFPEGLSRNVMGLDARNARDLSPEQIPALLASLTPVPAVAVRHTIGLLDPLEGPHGLSAEIAAARLRFFKIKIGGDLAADLDRLAAITALLTHLAPDFRATLDANEQYDPERLCQLAAGLDTPALRPLKARLLYIEQPFDRTETFTRPLPPALDGIPVIIDEADGGLDAFPRAIALGYRGVSSKACKGLYKSILNAVRVQAGEGTFLTAEDLTCQPGLGLQQDLALVATLGLTHGERNGHHYVAGFGPAPEEEAGAFAAAHPDLYRLTDAGAALDVSRGVLATASLLSAPGFAGRAEPDWASLAPVTEGHHHHHH,not soluble
15,MARTQYRAEEDDDEKVVDVINEDEEDENKSDIDEDFDEDEDEDEDKQESVKAALEKERKRGEALTNLERQAKRLGVSFDAAKAIKSGMSVEKAKNVVLTAAVSKSASLKLSTTAPHRDGTSKEKIHAKWETAWRAIK,not soluble
16,GSALRELKVCLLGDTGVGKSSIMWRFVEDSFDPNINPTIGASFMTKTVQYQNELHKFLIWDTAGLERFRALAPMYYRGSAAAIIVYDITKEETFSTLKNWVRELRQHGPPSIVVAIAGNKCDLTDVREVMERDAKDYADSIHAIFVETSAKNAININELFIEISRRIPST,soluble
17,MAHHHHHHMGKGAVHPNGSNFCRFLKYNIVDKMRTLVNTNLYDTPRWLEWSERAPPMEIYNISLKTKYNNNKYMDLVKFLLKKYPHLRFQDCYVEGNNNIKGYDYFRNDHIITQMATHQLYYMNRGYSKKEALEKTEKLFYDRRMDIEKQQKINMCLAIDEKVKPIYTNGYQYLYEKMADNEKAHLSIILKKLRNMKEKLQKKKKGANENEDKKNGVLT,not soluble
18,MGSDKIHHHHHHMADKKRLDQLVLERGLVESREKAKVLILAGKVLVNGERVTKASKLVPEDANVELLEEPKYVSRGGYKLESAFESFKIDVSGKVACDIGASTGGFTDFLLQRGAKKVYAVDVGYGQLHWKLRNDPRVVVMEKVNARYLNPDDLGEKVDVVTCDVSFISLKKIIPAISRILKNIGDAVLLVKPQFEAPRKFVKKGIVKDPGVHLEVLEEIRKSLIENGFVVKGCCFSKIKGTEGNIEYFFWVKKEGENAEIDLRKIVEEAWRFFGERER,not soluble
19,AVSKVYARSVYDSRGNPTVEVELTTEKGVFRSIVPSGASTGVHEALEMRDGDKSKWMGKGVLHAVKNVNDVIAPAFVKADIDVKDQKAVDDFLISLDGTANKSKLGANAILGVSLAASRAAAAEKDVPLYKHLADLSKSKTSPYVLPVPFLNVLNGGSHAGGALALQEFMIAPTGAKTFAEALRIGSEVYHNLKSLTKKRYGASAGNVGDEGGVAPNIQTAEEALDLIVDAIKAAGHDGKVKIGLDCASSEFFKDGKYDLDFKNPNSDKSKWLTGPQLADLYHSLMKRYPIVSIEDPFAEDDWEAWSHFFKTAGIQIVADDLTVTNPKRIATAIEKKAADALLLKVNQIGTLSESIKAAQDSFAAGWGVMVSHRSGETEDTFIADLVVGLRTGQIKTGAPARSERLAKLNQLLRIEEELGDNAVFAGENFHHGDKL,soluble
20,MGSDKIHHHHHHMRIRPDRNRGRSAGINPSGRFEPVSRHVFDDGWSSLEELPPFKTEVQVEKPRTIITRNESPDISFDRSINPYRGCEHGCVYCFARPTHAFMGLSPGLDFETKLFAKPDAARLLDKELSKEGYQPRTIAIGTNTDPYQPIEKQYRIMREILEVLEARGHPVGIVTKSALVTRDIDILSRMAERGLAKVALSVTTLDRMLARTMEPRASTPTKRLEAIRQLSDAGIPTSVMVAPIIPGLTDQEMERILDSAYAAGAREAGYVVLRLPLEVSPIFKDWLLRHYPDRYRHVMSLIRSMRDGKDYDSEWGKRMKGAGPYAWQIGRRFEITAKRLGLNIERRTLRTDQFVAAGKDQEQLMLL,not soluble
21,MGSDKIHHHHHHMRLKELLPNFLIVHQEVPEDPIAFKSTDKRENENKEITIPELIDTKVPELADGATDTLYGLLVNGHLQTAYGSFRHFDNIYKVQYKRMIIKYPHGGEGTVDFAVNGRSTKRRKVEKEYVPTSQPVFNGNLKRRYSYYSPDDPKLNSDDAKPMLIILHGLTGGSRESYVRAIVHEITTKYDFEACVFNARGCCYSAITTPLLYNGGWTNDIRYCVNDLRKRFPNRKFYMMGFSLGASIMTNYLGEESDRTKIECAISVSNPFDLYNSAYFINSTPMGSRFYSPALGHNLLRMVRNHLSTLEENPDFKDVIEKHLKKIRTVRQFDNLLTGPMFGYKNAEEYYKNASSYKRIPGIRTPFIALHAQDDPIVGGDLPIDQIKSNPYTLLLETSTGGHVGWFKDRSGRRWYAEPLCRFLKIFHDEITVKGLKPDLENVQLPDPNCEPIATTFRAN,not soluble
